# Biological target: LMP7-His, biotinylated (UniProt P28062)
# Test: BLI
substance,measurement,value
Nef-GST (from UniProt P03406 1-206) (natural protein),Kd,735 nM
same,wavelength shift,71.1 pm

# From publication doi:10.1101/697946
